Values quoted from earlier work as cited in paper PMC5686428.

Biological target: HSV-1 glycoprotein D (soluble gD) (Herpes simplex virus type 1) (UniProt Q69091)
Experiment: not stated (cited)
Conditions: SYBR Green assay: 1-200 nM protein, DApt (dissolved in PBS, heated 95 C 3 min, cooled on ice), 30 min, read at 520 nm; assay buffer, pH and temperature not …

UniProt Q69091, sequence (Q69091 26-331): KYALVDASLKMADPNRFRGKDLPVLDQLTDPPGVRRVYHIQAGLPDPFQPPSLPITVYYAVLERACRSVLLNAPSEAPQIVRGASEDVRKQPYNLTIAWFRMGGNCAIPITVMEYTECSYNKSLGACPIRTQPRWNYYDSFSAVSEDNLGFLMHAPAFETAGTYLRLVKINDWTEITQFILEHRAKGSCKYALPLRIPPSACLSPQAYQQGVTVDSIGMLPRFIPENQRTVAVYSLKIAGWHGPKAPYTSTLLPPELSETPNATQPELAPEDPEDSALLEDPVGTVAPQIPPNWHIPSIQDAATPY

GGGCACGAGAGAGGUCGUCCCCAGGGGAGAACUCGUGCUCCUGG [mini-1 RNA aptamer]
Kd: 4 nM
